In patent US20110002929A1 (Ablynx, published 2011):

How the values were obtained:
human RANK-L [1] = biological target: T1, human RANK-L (human, UniProt O14788 140-317, limits assumed); assay: SPR Biacore 3000, hRANK-L on CM5, 100 nM Nanobody
T1 construct: Soluble protein, used coated, biotinylated or labelled in ELISA, AlphaScreen, FMAT and Biacore; also called hRANK-L; soluble human RANK-L
T1 sequence (looked up): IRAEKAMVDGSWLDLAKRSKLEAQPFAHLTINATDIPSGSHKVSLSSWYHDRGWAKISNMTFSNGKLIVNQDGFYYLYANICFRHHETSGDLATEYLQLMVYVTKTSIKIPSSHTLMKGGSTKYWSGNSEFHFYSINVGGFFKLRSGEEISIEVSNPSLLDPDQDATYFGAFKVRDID
Description: (§1) Binding kinetics of the humanized versions of Nanobodu RANL13 were also analysed by Surface Plasmon Resonance (Biacore 3000). […] Nanobody binding was assessed at one concentration (100 nM). Each Nanobody was injected for 4 minutes at a flow rate of 45 μl/min to allow binding to chip-bound antigen. Next, binding buffer without Nanobody was sent over the chip at the same flow rate to allow spontaneous dissociation of bound Nanobody.

[2] = biological target: T2, human RANK-L, full length, membrane-bound, expressed on HEK293T cells (human, UniProt O14788 1-317); assay: FACS, HEK293T with human RANK-L, 2000 pM Nanobody
T2 construct: whole, on cells; also called hRANK-L
T2 sequence (looked up): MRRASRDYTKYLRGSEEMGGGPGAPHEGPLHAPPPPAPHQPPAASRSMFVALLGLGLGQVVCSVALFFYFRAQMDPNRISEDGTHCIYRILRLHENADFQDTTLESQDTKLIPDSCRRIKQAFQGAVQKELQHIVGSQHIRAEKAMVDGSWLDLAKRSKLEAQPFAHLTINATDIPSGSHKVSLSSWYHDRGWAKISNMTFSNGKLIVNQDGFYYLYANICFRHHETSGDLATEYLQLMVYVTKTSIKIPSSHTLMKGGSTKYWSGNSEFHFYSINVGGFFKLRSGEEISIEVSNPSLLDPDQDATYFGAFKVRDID
Description: (§2) Human embryonic kidney cells (HEK293T) were grown in Dulbecco's modified Eagles's medium supplemented with 10% fetal bovine serum (FBS), […] L-glutamine, 0.4 mM sodium pyruvate. […] After 48 hours, transfected cells were subjected to FACS analysis. […] Then cells were washed three times with FACS buffer. Bound Nanobodies were detected by subsequent incubations of a primary mouse anti Myc antibody (30 min at 4° C. (2 μg/ml)) and a second incubation with goat anti mouse-Phycoerythrin (PE) (Jackson Laboratories) for another 30 min at 4° C. Finally, after washing, the cells were resuspended in PBS+10% FBS+TO-PRO®-3 (5 nM) (Molecular Probes®, Invitrogen, Merelbeke, Belgium) and cell surface fluorescence expressed as mean PE fluorescence, was measured using flow cytometry.

human RANK-L [3] = biological target: T1, human RANK-L; assay: FMAT, ALEXA647-hRANK-L / RANK on HEK293T cells
human RANK-L [4] = biological target: T1, human RANK-L; assay: AlphaScreen, biotin-hRANK-L / RANK-huFc beads
[5] = biological target: T2, human RANK-L, full length, …; assay: FACS, HEK293T with human RANK-L, 400 pM Nanobody
Description: as §2

mouse RANK-L = biological target: T3, mouse RANK-L (mouse, UniProt O35235 158-316, limits assumed); assay: ELISA, set-up as for human RANK-L
T3 construct: also called murine RANK-L
T3 sequence (looked up): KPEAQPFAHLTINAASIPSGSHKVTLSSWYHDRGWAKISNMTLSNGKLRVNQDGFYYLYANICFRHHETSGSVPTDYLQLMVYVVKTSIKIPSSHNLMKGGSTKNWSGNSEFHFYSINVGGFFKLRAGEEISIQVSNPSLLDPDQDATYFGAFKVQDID
Summary of the method: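 Nanobodies at 500 nM to 160 pM in 1% casein/PBS incubated 1 h at room temperature; binding detected via anti-myc then anti-mouse-HRP with TMB, OD 450 nm.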

[6] = biological target: T4, cynomolgus RANK-L, full length, membrane-bound, expressed on HEK293T cells (cynomolgus monkey, UniProt A0A7N9DBU4 1-317); assay: FACS, HEK293T with cynomolgus RANK-L, 2000 pM Nanobody
T4 construct: whole, on cells; also called cyno RANK-L
T4 sequence: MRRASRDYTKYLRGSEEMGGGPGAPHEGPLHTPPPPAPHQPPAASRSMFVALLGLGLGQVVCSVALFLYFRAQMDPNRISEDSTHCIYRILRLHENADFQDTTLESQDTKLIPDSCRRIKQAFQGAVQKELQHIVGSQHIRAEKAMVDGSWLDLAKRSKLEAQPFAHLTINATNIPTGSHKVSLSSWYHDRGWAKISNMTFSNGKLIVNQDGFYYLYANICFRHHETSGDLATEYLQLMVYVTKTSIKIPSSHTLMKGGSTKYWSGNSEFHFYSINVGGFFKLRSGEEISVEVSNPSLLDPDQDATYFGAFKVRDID
Description: as §2

human RANK-L [7] = biological target: T1, human RANK-L; assay: AlphaScreen, biotin-hRANK-L / RANK-huFc beads; remark: listed apart in the source
Description: To this mixture, the RANK acceptor beads and the streptavidin donor beads were added and further incubated for 1 hour at room temperature. Fluorescence was measured by reading plates on the EnVision Multilabel Plate Reader (Perkin Elmer) using an excitation wavelength of 680 nm and an emission wavelength of 520 nm.

human RANK-L [8] = biological target: T1, human RANK-L; assay: SPR Biacore 3000, hRANK-L on CM5, 100 nM Nanobody; only indicative (one concentration)
Description: as §1

B1: RANKL18 (VHH, not shown: small tags and cut ends)
VHH: EVQLVESGGGLVQAGGSLRLSCAASGRTFSRSAMGWFRQAPGKEREFVGFITGSGGTTYYGESVKGRFTISRDNAQNPVYLQMNSLKPEDTAVYYCGVYRRTYISSTYSESSEYDYWGQGTQVTVSS
koff (human RANK-L [1]): 5.6e-05 s⁻¹ | PE mean fluorescence [2]: 7630 | IC50 (human RANK-L [3]): 0.253 nM | IC50 (human RANK-L [4]): 0.292 nM | PE mean fluorescence [5]: 2330 | binding result (mouse RANK-L): no binding (tested: 500 nM to 160 pM) | PE mean fluorescence [6]: 12000 | IC50 (human RANK-L [7]): 0.146 nM | Kd (human RANK-L [8]): 0.18 nM | kon (human RANK-L [8]): 310000 M⁻¹ s⁻¹

B2: RANKL13 (VHH, not shown: small tags and cut ends)
VHH: EVQLVESGGGLVQAGGSLRLSCAASGRTFRSYPMGWFRQAPGKEREFVASITGSGGSTYYADSVKGRFTISRDNAKNTVYLQMNSLRPEDTAVYSCAAYIRPDTYLSRDYRKYDYWGQGTQVTVSS
koff (human RANK-L [1]): 0.00025 s⁻¹ | PE mean fluorescence [2]: 13900 | IC50 (human RANK-L [3]): 0.264 nM | IC50 (human RANK-L [4]): 0.174 nM | PE mean fluorescence [5]: 5220 | binding result (mouse RANK-L): no binding (tested: 500 nM to 160 pM) | PE mean fluorescence [6]: 12400 | IC50 (human RANK-L [7]): 0.185 nM | Kd (human RANK-L [8]): 0.5 nM | kon (human RANK-L [8]): 500000 M⁻¹ s⁻¹
